Results taken from patent US6699715 (Bristol-Myers Squibb, dated 2004).
Values belong to the molecule of their own block, whether it stands above or below them.

Experiments:
[1] = target: T1, L6 antigen (human, UniProt P30408 1-202); assay: flow cytometry on L6 positive H2981 tumor cells
T1 construct: whole, on cells; also called tumor associated antigen L6; L6 molecule
T1 sequence (looked up): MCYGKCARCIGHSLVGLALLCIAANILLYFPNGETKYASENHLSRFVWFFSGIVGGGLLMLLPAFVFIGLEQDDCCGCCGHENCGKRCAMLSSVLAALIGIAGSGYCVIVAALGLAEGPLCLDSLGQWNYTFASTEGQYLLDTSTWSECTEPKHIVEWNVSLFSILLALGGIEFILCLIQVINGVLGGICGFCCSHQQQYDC

[2] = target: T2, human CD28 (human, UniProt P10747 19-220); assay: cell-based or functional assay
T2 construct: whole, on cells; also called CD28 receptor; CD28 CHO cells

[3] = target: T1, L6 antigen; assay: flow cytometry on L6 positive H2981 tumor cells, FITC anti-human IgG
Procedure: (§1) FIGS. 15a/b/c are line graphs showing that the bispecific 9.3/L6 sFvIg fusion protein binds to L6+ H2981 tumor cells and to CD28+ CHO cells. Panel 15A: L6+ H2981 tumor cells were incubated with L6 sFvIg ( - - - - ) at 0.5 μg/ml or 9.3 sFvIg ( . . . . ) at 0.5 μg/ml or 9.3/L6 sFvIg (_____) fusion protein at 0.5 μg/ml or with medium alone ( . . . . ). Panel 15B: CD28 CHO cells were incubated with 9.3 sFvIg ( - - - - ) at 1 μg/ml or 9.3/L6 sFvIg fusion protein (_____) at 1 μg/ml, or with medium alone ( . . . . ). Bound protein was detected with FITC conjugated goat anti-human IgG at 1:100. Panel 15C: CD28+ PHA blasts were incubated with FITC conjugated L6 α-idiotype mAb 13B ( . . . . ) as negative control, bispecific 9.3/L6 sFvIg at 0.5 μg/ml and bound protein detected with FITC conjugated L6 α-idiotypic mAb 13B ( - - - - ). Preincubation of cells with unlabelled 9.3 sFvIg inhibited binding of bispecific 9.3/L6 sFvIg as shown by a significant reduction in FITC-13B staining (_____). A total of 10,000 cells were analyzed per sample.
(§2) Binding activity of the 9.3 and 9.3/L6 sFvIg Fusion Protein: The binding of each sFvIg fusion protein was assayed by immunostaining and FACS analysis. […] 9.3 sFvIg and 9.3/L6 sFvIg were incubated with CD28 CHO cells and binding was detected using FITC anti-human IgG as shown in FIG. 15B. […]

[4] = target: T2, human CD28; assay: flow cytometry on CD28 CHO cells, FITC anti-human IgG
Procedure: as §1, §2

concentration of native L6 antibody that gives the same staining as 1 µg/ml of the fusion protein [1]: 0.5 µg/mL | [3H]-thymidine incorporation of PHA blasts, 9.3/L6 at 0.05 µg/ml, +H3347 [2]: 97800 cpm | [3H]-thymidine incorporation of PHA blasts, 9.3/L6 at 0.05 µg/ml, no H3347 cells [2]: 4000 cpm | [3H]-thymidine incorporation of PHA blasts, 9.3/L6 at 0.1 µg/ml, +H3347 [2]: 115000 cpm | [3H]-thymidine incorporation of PHA blasts, 9.3/L6 at 0.1 µg/ml, no H3347 cells [2]: 9600 cpm | [3H]-thymidine incorporation of PHA blasts, 9.3/L6 at 0.5 µg/ml, +H3347 [2]: 145000 cpm | [3H]-thymidine incorporation of PHA blasts, 9.3/L6 at 0.5 µg/ml, no H3347 cells [2]: 69200 cpm | [3H]-thymidine incorporation of PHA blasts, untransfected H3347 preincubated with 9.3/L6 at 1 µg/ml, cells washed 3× [2]: 98000 cpm | proliferation of T cell blasts with 9.3/L6 sFvIg alone (FIG. 16) [2]: > 0.1 µg/mL
Molecule: bispecific 9.3/L6 sFvIg fusion protein (bispecific antibody)

3H-Thymidine incorporation, + blasts; 9.3 mAb [2]: 58800 | 3H-Thymidine incorporation, + blasts; 9.3 mAb + 187.1 Ab [2]: 98300
Molecule: 9.3 monoclonal antibody

binding result [3]: no binding (tested: 1 µg/ml) | binding result [4]: binds
B1: 9.3 sFvIg (scFv, not shown: small tags and cut ends)
scFv: DIVLTQSPASLAVSLGQRATISCRASESVEYYVTSLMQWYQQKPGQPPKLLIFAASNVESGVPARFSGSGSGTNFSLNIHPVDEDDVAMYFCQQSRKVPYTFGGGTKLEIKRASGGGGSGGGGSGGGGSLAQVQLKESGPGLVTPSQSLSITCTVSGFSLSDYGVHWVRQSPGQGLECLGVIWAGGGTNYNSALMSRKSISKDNSKGQVFLKMKSLQADDTAVYYCARDKGYSYYYSMDYWGQGTSVTVSS
notes: Anti-human CD28 sFv of mouse mAb 9.3 fused to human Ig; from COS or CHO cells; also called 9.3 sFvIg fusion protein; monospecific 9.3 sFvIg
